Laboratory results from publication PMC4335507.

Target: GST-Ran Q69L, GTP-bound (UniProt Q9VZ23)
Assay: pull-down; GST-Ran loaded with GDP or GST-Ran Q69L loaded with GTP γS, or GST alone, on beads incubated with TIM-V5 expressed in S2 cells, 4 h at 4°C; bound TIM-V5 detected with anti-V5

Substance: V5-tagged wild-type TIM (TIMELESS) (from UniProt P49021 1-1398) (natural protein)
- ratio of binding, Ran GTP over Ran GDP: 1.64
